The Kd is a measure of binding affinity in units of concentration.

Read-outs that look alike come from different tables or passages of the source.

The target of experiment [1] is E-cadherin ECD (Mus musculus) (UniProt P09803). Particulars: cited from earlier work.
Experiment [2] has the same target. Particulars: cited from earlier work. This is another data set of the same source.
The target of experiment [3] is W2A E-cadherin/ATH monomer (E-cadherin extracellular domains EC1-EC5, W2A, N20C). Description: FRET or BRET. A general note: Bioluminescence resonance energy transfer reports proximity on the nanometre scale.
For experiment [4] the target is unchanged. As to the kind of experiment: cross-linking.
The target is the same in experiment [5]. Description: single molecule AFM force measurement.

For E-cadherin ECD (from UniProt P09803), the Kd in experiment [1] is 720 µM; in experiment [2], 10 mM.
Substance “W2A E-cadherin/ATH monomer (E-cadherin extracellular domains EC1-EC5, W2A, N20C) (domain or fragment)” displayed an FRET efficiency (peak) in experiment [3] of 0.74. The substance also came in with a cross-linked dimer yield in experiment [4] of 20%. In experiment [5], this substance registered a bond strength (unbinding force) of 17 pN.

Values taken from article PMC4113602.
